In general, Kd refers to the constant that tells how readily two partners part at equilibrium. Broadly, the koff is a measure of how fast the partners let go of each other. A higher koff goes with a short-lived complex. The kon is the second-order rate constant of association. A low value points to slow association.

Experiment [1] concerns the target T1, hIL10Ra-his (Sino Biological, Catalog#10419) (human, UniProt Q13651 22-235).
T1 construct: Bought; also called Sino Biological cat#10419-H08H; not shown: C-terminal poly-His tag
T1 sequence: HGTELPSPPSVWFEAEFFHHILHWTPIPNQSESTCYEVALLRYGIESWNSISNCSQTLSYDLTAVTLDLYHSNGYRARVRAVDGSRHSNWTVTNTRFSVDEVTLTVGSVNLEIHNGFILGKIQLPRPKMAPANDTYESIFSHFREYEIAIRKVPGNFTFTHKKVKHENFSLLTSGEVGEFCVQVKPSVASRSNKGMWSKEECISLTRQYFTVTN
The experiment is described as follows: SPR Biacore T200; biotinylated dual VHH captured on CAP biotin chip, hIL10Ra-his analyte; kon, koff and Rmax printed N/A. (In general: SPR reads the build-up and loss of mass on a sensor chip optically.)

The target of experiment [2] is T2, hIL10Rb-his (Sino Biological, Catalog#10945) (human, UniProt Q08334 20-220).
T2 construct: Bought; also called Sino Biological cat#10945-H08H; not shown: C-terminal poly-His tag
T2 sequence: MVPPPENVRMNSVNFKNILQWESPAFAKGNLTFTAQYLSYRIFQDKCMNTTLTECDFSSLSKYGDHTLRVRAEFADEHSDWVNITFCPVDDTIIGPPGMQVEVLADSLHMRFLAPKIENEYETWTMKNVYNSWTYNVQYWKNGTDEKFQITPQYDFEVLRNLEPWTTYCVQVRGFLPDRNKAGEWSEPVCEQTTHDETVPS
The experiment is described as follows: SPR Biacore T200; biotinylated dual VHH captured on CAP biotin chip, hIL10Rb-his analyte; 1:1 Langmuir fit.

Experiment [3] concerns the target T2, hIL10Rb-his (Sino Biological, …). Nature of the experiment: SPR; ratio of experimental to calculated Rmax.
The target of experiment [4] is T1, hIL10Ra-his (Sino Biological, …). Nature of the experiment: SPR Biacore T200; biotinylated dual VHH captured on CAP biotin chip, hIL10Ra-his analyte; 1:1 Langmuir fit.
Experiment [5] addresses T2, hIL10Rb-his (Sino Biological, …). The experiment is described as follows: SPR Biacore T200; mono-Fc VHH captured on Protein A chip, hIL10Rb-his analyte; 1:1 Langmuir fit (row flagged: inaccurate fit). The source says: To confirm and evaluate binding affinities of the binding of the hIL10Rb sdAbs, a representative example from each clonotype generated was selected for evaluation of binding via SPR. […] RMAX<100 RU indicates surface density compatible with kinetics analysis. Calculated Rmax values were generated using the equation: Rmax=Load (RU)×valency of ligand×(Molecular weight of analyte/Molecular weight of ligand). Surface activity was defined as the ratio of experimental/calculated Rmax.
One representative example from each clonotype of IL10a generated in accordance with Examples 1-3 was selected for evaluation of binding via SPR as follows. […] All experiments were conducted in 10 mM Hepes, 150 mM NaCl, 0.05% (v/v) Polysorbate 20 (PS20) and 3 mM EDTA (HBS-EP+ buffer) on a Biacore T200 instrument equipped with a Protein A derivatized sensor chip (Cytiva). Mono-Fc VHH ligands were flowed at 5 μl/min for variable time ranging from 18 to 300 seconds, reaching the capture loads listed in the tables below. Following ligand capture, injections of a 2-fold dilution series of the extracellular domain of the […] modified to incorporate a C-terminal poly-His sequence, typically comprising at least five concentrations between 1 μM and 1 nM, were performed in either high performance or single cycle kinetics mode. Surface regeneration was achieved by flowing 10 mM glycine-HCl, pH 1.5 (60 seconds, 50 μL/min).

B1: hIL10Ra_VHH17-hIL10Rb_VHH16 biotin (bispecific antibody)
chain: QVQLQESGGGSVQAGGSLRLSCAASGYSNCSYDMTWYRQAPGKEREFVSAIHSDGSTRYADSVKGRFFISQDNAKNTVYLQMNSLKPEDTAMYYCKTDPLHCRAHGGSWYSVRANYWGQGTQVTVSSGGGSQVQLQESGGGSVEAGGSLRLSCAASGYTHSSYCMGWFRQAPGKEREGVAAIDVDGSTTYADSVKGRFTISKDNAKNTLYLQMNSLKPEDTGMYYCAAEFADCSSNYFLPPGAVRYWGQGTQVTVSS
modifications: conjugated to biotin (site not stated)
In the case of B1, the Kd in experiment [1] was less than 5 nM. For the same molecule, in experiment [2], the affinity, expressed as Kd, was 2.9 nM; the koff was found to be 0.00045 s⁻¹; the kon stood at 160000 M⁻¹ s⁻¹. Moreover, in experiment [3], the Activity is 34%.

B2: hIL10Rb_VHH12-hIL10Ra_VHH8 biotin (bispecific antibody)
chain: QVQLQESGGGSVQAGGSLRLSCAASGYTYSSYCMGWFRQAPGKEREGVAHIDSDGSTSYADSVKGRFTISKDNAKNTLYLQMNSLKPEDTAMYYCAADPIPGPGYCDGGPNKYWGQGTQVTVSSGGGSQVQLQESGGGSVQAGGSLRLSCAASGYTYSMYCMGWFRQAPGKEREGVAQINSDGSTSYADSVKGRFTISKDNAKNTLYLQMNSLKPEDTAMYYCAADSRVYGGSWYERLCGPYTYEYNYWGQGTQVTVSS
modifications: conjugated to biotin (site not stated)
In experiment [2], B2 yielded a Kd of 1.5 nM, an off-rate (koff) of 0.00068 s⁻¹ and a kon of 440000 M⁻¹ s⁻¹. For the same molecule, in experiment [3], the Activity is 42%. In experiment [4], this molecule had a Kd of 0.35 nM, an off-rate (koff) of 6.5e-05 s⁻¹ and a kon of 180000 M⁻¹ s⁻¹.

B3: hIL10Ra_VHH12-hIL10Rb_VHH27 biotin (bispecific antibody)
chain: QVQLQESGGGSVQAGGSLRLSCTVSGYTYSSNCMGWFRQAPGKEREGVATIYTGGGNTYYADSVKGRFTISQDNAKNTVYLQMNNLKPEDTAMYYCAAEPLSRVYGGSCPTPTFDYWGQGTQVTVSSGGGSQVQLQESGGGSVQTGGSLRLSCAASGYTYLRGCMGWFRQAPGKEREGVAVMDVVGDRRSYIDSVKGRFTISRDNAANSVYLQMDNLKPEDTAMYYCTAGPNCVGWRSGLDYWGQGTQVTVSS
modifications: conjugated to biotin (site not stated)
notes: also called IL10 VHH DR509 biotin; DR509
Take B3: in experiment [2], the Kd was 1.9 nM, the koff was 0.003 s⁻¹ and the kon turned out to be 1.6e+06 M⁻¹ s⁻¹. The Activity in experiment [3] is 85%. Moreover, in experiment [4], the affinity, expressed as Kd, was 0.2 nM; the koff amounted to 0.00013 s⁻¹; the kon amounted to 490000 M⁻¹ s⁻¹.

B4: hIL-10Rb_VHH16 Mono-Fc (Fc fusion)
chain: QVQLQESGGGSVEAGGSLRLSCAASGYTHSSYCMGWFRQAPGKEREGVAAIDVDGSTTYADSVKGRFTISKDNAKNTLYLQMNSLKPEDTGMYYCAAEFADCSSNYFLPPGAVRYWGQGTQVTVSS
notes: Mono-Fc VHH captured on Protein A; not shown: mono-Fc part
In experiment [5], B4 yielded a Kd of 7540 nM, a koff of 0.0221 s⁻¹ and a kon of 2930 M⁻¹ s⁻¹.
